Key:
Experiment in all cases: ITC; SCE at 60 µM in the cell (300 µl loaded), SUMO1-Flag-His at 600 µM in the syringe; 20 injections; 25°C; 20 mM Tris, 5 mM MgCl2, pH 7.4; MicroCal ITC 200
Settings in all cases: both partners purified
[1] = target: T1, Arabidopsis SUMO-conjugating enzyme SCE1, wild type (Arabidopsis, UniProt Q42551 1-160)
T1 construct: SUMO-conjugating enzyme SCE1, Arabidopsis thaliana, AT3G57870; also called SCE WT; WT SCE; source: MonoS ion exchange for ITC
T1 sequence (looked up): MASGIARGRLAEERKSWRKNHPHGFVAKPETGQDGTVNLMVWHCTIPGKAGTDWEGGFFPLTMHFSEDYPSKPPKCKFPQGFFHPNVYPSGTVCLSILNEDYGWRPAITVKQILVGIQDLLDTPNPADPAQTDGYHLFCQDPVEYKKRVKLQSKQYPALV

[2] = target: T2, SCE K15R (Arabidopsis, UniProt Q42551 1-160, K15R)
T2 construct: SUMO-conjugating enzyme SCE1, Arabidopsis thaliana, AT3G57870, with K15R; also called SCE1 K15R; source: MonoS ion exchange for ITC
T2 sequence (looked up): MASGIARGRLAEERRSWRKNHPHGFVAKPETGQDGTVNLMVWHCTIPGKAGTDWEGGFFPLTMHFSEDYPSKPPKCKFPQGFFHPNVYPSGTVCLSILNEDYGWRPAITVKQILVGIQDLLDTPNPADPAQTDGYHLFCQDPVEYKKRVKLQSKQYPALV

[3] = target: T3, SCE K28R (Arabidopsis, UniProt Q42551 1-160, K28R)
T3 construct: SUMO-conjugating enzyme SCE1, Arabidopsis thaliana, AT3G57870, with K28R; source: MonoS ion exchange for ITC
T3 sequence (looked up): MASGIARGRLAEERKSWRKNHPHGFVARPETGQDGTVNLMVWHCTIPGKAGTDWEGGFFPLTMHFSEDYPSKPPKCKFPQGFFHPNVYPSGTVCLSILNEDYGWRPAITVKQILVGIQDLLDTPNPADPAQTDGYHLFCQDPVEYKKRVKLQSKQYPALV

B1: SUMO1-Flag-His (natural protein, Arabidopsis, UniProt P55852 1-93, looked up)
chain: MSANQEEDKKPGDGGAHINLKVKGQDGNEVFFRIKRSTQLKKLMNAYCDRQSVDMNSIAFLFDGRRLRAEQTPDELDMEDGDEIDAMLHQTGG
notes: SUMO1 (small ubiquitin-related modifier 1), Arabidopsis; The SUMO preparations are conjugated in vitro without a protease, so the processed form ending in Gly-Gly is surmised; also called N-terminally tagged SUMO (Flag-His); source: purified (Ni2+ resin, then MonoQ ion exchange for ITC); not shown: Flag, N-terminal, kept; His, N-terminal, kept
Q: Which Kd [1] does the source give for B1 here?
A: 710 ± 230 µM

Q: What about the Kd [2] of the same binder?
A: 33 ± 17 µM

Q: And the Kd [3]?
A: 270 ± 330 µM

— PMC5748838, “SUMO chain formation relies on the amino-terminal region of SUMO-conjugating enzyme and has dedicated substrates in plants” (Biochemical Journal, 2017)
